One block for each binder: values may come before it.
Key:
[1] = molecular target: T1, cynomolgus GFRα3 on HEK293/MfGFRα3/MfRet/SRE-Luc cells (cynomolgus, UniProt O60609 1-400 (human entry), limits assumed); test: cell-based or functional assay
T1 chain: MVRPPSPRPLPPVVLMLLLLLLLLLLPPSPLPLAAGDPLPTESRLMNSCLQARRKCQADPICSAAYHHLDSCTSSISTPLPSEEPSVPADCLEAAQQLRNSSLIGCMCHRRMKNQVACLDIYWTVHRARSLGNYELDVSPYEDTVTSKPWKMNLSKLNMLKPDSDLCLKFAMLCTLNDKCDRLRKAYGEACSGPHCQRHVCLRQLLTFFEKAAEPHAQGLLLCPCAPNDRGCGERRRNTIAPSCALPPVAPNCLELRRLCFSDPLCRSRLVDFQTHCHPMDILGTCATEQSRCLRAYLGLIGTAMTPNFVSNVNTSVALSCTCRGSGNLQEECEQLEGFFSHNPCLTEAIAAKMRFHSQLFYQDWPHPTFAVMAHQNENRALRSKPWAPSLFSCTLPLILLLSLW

[2] = molecular target: T2, human GFRα3 on HEK293/hGFRα3/hRET/SRE-luc cells (human, UniProt O60609 32-382); test: cell-based or functional assay
T2 sequence: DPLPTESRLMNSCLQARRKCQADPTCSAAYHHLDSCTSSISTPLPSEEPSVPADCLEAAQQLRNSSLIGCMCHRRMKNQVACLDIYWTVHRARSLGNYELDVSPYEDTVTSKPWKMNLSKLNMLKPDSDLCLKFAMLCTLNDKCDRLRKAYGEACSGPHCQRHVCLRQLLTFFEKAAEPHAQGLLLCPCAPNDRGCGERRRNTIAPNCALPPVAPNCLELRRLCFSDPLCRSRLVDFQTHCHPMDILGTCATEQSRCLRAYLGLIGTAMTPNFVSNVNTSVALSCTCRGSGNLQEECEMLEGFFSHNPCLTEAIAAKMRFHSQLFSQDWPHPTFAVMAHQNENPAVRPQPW

[3] = molecular target: T3, human GFRα3 expressed with a C-terminal hFc tag (human); test: blocking ELISA 1, hGFRα3-hFc to coated hARTEMIN-mmH
T3 construct: also called hGFRα3-hFc
Description: (§1) A constant amount of human GFRα3 fused with a C-terminal human Fc tag (hGFRα3-hFc; SEQ ID:371) at 120 pM was pre-mixed with varying amounts of antibodies, ranging from 0 to ˜10 nM in serial dilutions, followed by an 1 hour incubation at room temperature (RT) to allow antibody-hGFRα3-hFc binding to reach equilibrium. The equilibrated sample solutions were then transferred to the hARTEMIN-mmH-coated plate. […] Absorbance was recorded at 450 nm on a Victor X5 plate reader (Perkin Elmer) to determine the amount of free hGFRα3-hFc in the pre-equilibrated hGFRα3-hFc-antibody solutions that was able to bind to the plate coated with hARTEMIN-mmH. IC₅₀ values, defined as the concentration of antibody required to reduce the signal from a constant concentration of hGFRα3-hFc by 50%, were calculated from the data using Prism software from GraphPad. The absorbance measured at the constant amount of 120 pM hGFRα3-hFc in the absence of anti-GFRα3 antibody is defined as 0% blocking and the absorbance with no added hGFRα3-hFc is defined as 100% blocking. The observed absorbance in the wells containing the highest antibody concentration was used to calculate the maximum blocking percent shown in the table.

[4] = molecular target: T4, human GFRα3 expressed with a C-terminal myc-myc-hexahistidine tag (human, UniProt O60609 32-374, biotinylated (sites not given) in ELISA format 2 and in the Octet cross-competition; not in SPR); test: blocking ELISA 2, biotin-hGFRα3-mmH to coated hARTEMIN-mmH + hRET-10His
T4 construct: also called hGFRα3-mmh; hGFRα3-mmH
Description: as §1, with “The” for “A constant amount of human GFRα3 fused with a C-terminal human Fc tag (hGFRα3-hFc; SEQ ID:371) at 120 pM was pre-mixed with varying amounts of antibodies, ranging from 0 to ˜10 nM in serial dilutions, followed by an 1 hour incubation at room temperature (RT) to allow antibody-hGFRα3-hFc binding to reach equilibrium. The”
In the second ELISA format, the plates, samples and data were processed similarly as for the first format except both hARTEMIN-mmH and human RET with a C-terminal 10 histidine tag (hRET-10His; R&D Systems, #1168-CR/CF) were coated for the blocking ELISA experiment. The 96-well microtiter plates were coated with a mixture of 1.2 ug/ml hARTEMIN-mmH and 6.9 ug/ml hRET-10His proteins in PBS overnight at 4° C. and then blocked with a solution of 0.5% (w/v) BSA. A constant amount of biotinylated human GFRα3 with a C-terminal myc-myc-hexahistidine tag (biotin-hGFRα3-mmH; SEQ ID:370) at 1 nM was pre-mixed with varied amounts of anti-GFRα3 antibodies, ranging from 0 to ˜100 nM in serial dilutions, followed by a 1 hour incubation at RT to allow antibody-biotin-hGFRα3-mmH binding to reach equilibrium. The equilibrated samples were then transferred to the coated plate. After 1 hour of binding, the plate was washed, then the bound biotin-hGFRα3-mmH was detected using HRP conjugated streptavidin (Pierce, #N200), and colorimetric signals were developed using TMB HRP substrates.

EC50 of SRE-dependent luciferase activity in HEK293/mfGFRα3/mfRet/SRE-LUC cells [1]: 0.07 nM
B1: recombinant human ARTEMIN protein with a C-terminal myc-myc-hexahistidine tag (ligand)
chain: AGGPGSRARAAGARGCRLRSQLVPVRALGLGHRSDELVRFRFCSGSCRRARSPHDLSLASLLGAGALRPPPGSRPVSQPCCRPTRYEAVSFMDVNSTWRTVDRLSATACGCLGEQKLISEEDLGGEQKLISEEDLHHHHHH

IC50 (SRE-luc, HEK293/hGFRα3/hRET cells, 100 pM hARTEMIN-mmH) [2]: 2.3 nM
% max blocking [3]: 70%
IC50 [3]: 0.0829 nM
% max blocking [4]: 97%
IC50 [4]: 3.42 nM
B2: H4H2234N (antibody, human IgG4, V domains shown)
VH: EVQLLESGGGLVQSGGSLRLSCAASGFSFNNYAMSWVRQAPGKGLEWVSFISGSGGSTYYADSVKGRFTISRDNSKNTLYLQMNSLRVEDTAVFYCAKDRYNYGTFFDYWGQGTLVTVSS
VL: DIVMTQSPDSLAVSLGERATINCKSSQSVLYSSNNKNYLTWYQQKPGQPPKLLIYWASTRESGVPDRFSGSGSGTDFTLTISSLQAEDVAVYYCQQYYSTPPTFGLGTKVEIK
notes: human IgG4 Fc (H4H)

IC50 (SRE-luc, HEK293/hGFRα3/hRET cells, 100 pM hARTEMIN-mmH) [2]: 2.4 nM
% max blocking [4]: 85%
IC50 [4]: 7.3 nM
B3: H4H2207N (antibody, human IgG4, V domains shown)
VH: EVQLVESGGGLVQPGRSLRLSCAASGFTFNDYAMHWVRQAPGKGLEWVSGISWNSGNIGYADSVKGRFTISRDNAKNSLYLQMNSLRAEDTALYFCARDTRMATRPFDYWGQGTLVTVSS
VL: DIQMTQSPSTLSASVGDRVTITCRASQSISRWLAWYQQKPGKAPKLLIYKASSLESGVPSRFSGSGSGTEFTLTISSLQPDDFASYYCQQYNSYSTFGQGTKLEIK
notes: human IgG4 Fc (H4H)

— patent publication US20140056903A1 (Regeneron, published 2014)
